Measurements: patent US20240101682A1 (PINETREE THERAPEUTICS, published 2024)

Legend:
[1] = target: T1, recombinant human EGFR, biotinylated (human, UniProt P00533 25-645, biotinylated (site not stated)); assay: BLI (Octet Red 96), biotinylated antigen on streptavidin sensor, bsAb in solution, bivalent format
T1 construct: also called huEGFR; recombinant huEGFR

[2] = target: T2, recombinant human NRP1, biotinylated (human, UniProt O14786-2 22-644, limits assumed, biotinylated (site not stated)); assay: as above
T2 construct: also called huNRP1; recombinant NRP1

Binder | Kd [1] [pM] | Kd [2] [pM]
bsAb with heavy chain polypeptide SEQ ID NO: 3 and light chain SEQ ID NO: 12 (bispecific antibody, human IgG2, kappa) heavy: QVQLQESGPGLVKPSETLSLTCTVSGGSVSSGDYYWTWIRQSPGKGLEWIGHIYYSGNTNYNPSLKSRLTISIDTSKTQFSLKLSSVTAADTAIYYCVRDRVTGAFDIWGQGTMVTVSSASTKGPSVFPLAPCSRSTSESTAALGCLVKDYFPEPVTVSWNSGALTSGVHTFPAVLQSSGLYSLSSVVTVPSSNFGTQTYTCNVDHKPSNTKVDKTVERKCCVECPPCPAPPVAGPSVFLFPPKPKDTLMISRTPEVTCVVVDVSHEDPEVQFNWYVDGVEVHNAKTKPREEQFNSTFRVVSVLTVVHQDWLNGKEYKCKVSNKGLPAPIEKTISKTKGQPREPQVYTLPPSREEMTKNQVSLTCLVKGFYPSDIAVEWESNGQPENNYKTTPPMLDSDGSFFLYSKLTVDKSRWQQGNVFSCSVMHEALHNHYTQKSLSLSPGKGGGGSGGGGSGGGGSEVQLVESGGGLVQPGGSLRLSCAASGFTFSSYAMSWVRQAPGKGLEWVSQISPAGGYTNYADSVKGRFTISADTSKNTAYLQMNSLRAEDTAVYYCARGELPYFRMSKVMDVWGQGTLVTVSSGGGGSGGGGSGGGGSDIQMTQSPSSLSASVGDRVTITCRASQFLSSYLAWYQQKPGKAPKLLIYGASARASGVPSRFSGSGSGTDFTLTISSLQPEDFATYYCQQYLASPATFGQGTKVEIK light: not shown | < 100 | 530
bsAb with heavy chain polypeptide SEQ ID NO: 2 and light chain SEQ ID NO: 12 (bispecific antibody, human IgG2, kappa) heavy: QVQLQESGPGLVKPSETLSLTCTVSGGSVSSGDYYWTWIRQSPGKGLEWIGHIYYSGNTNYNPSLKSRLTISIDTSKTQFSLKLSSVTAADTAIYYCVRDRVTGAFDIWGQGTMVTVSSASTKGPSVFPLAPCSRSTSESTAALGCLVKDYFPEPVTVSWNSGALTSGVHTFPAVLQSSGLYSLSSVVTVPSSNFGTQTYTCNVDHKPSNTKVDKTVERKCCVECPPCPAPPVAGPSVFLFPPKPKDTLMISRTPEVTCVVVDVSHEDPEVQFNWYVDGVEVHNAKTKPREEQFNSTFRVVSVLTVVHQDWLNGKEYKCKVSNKGLPAPIEKTISKTKGQPREPQVYTLPPSREEMTKNQVSLTCLVKGFYPSDIAVEWESNGQPENNYKTTPPMLDSDGSFFLYSKLTVDKSRWQQGNVFSCSVMHEALHNHYTQKSLSLSPGKGGGGSGGGGSGGGGSEVQLVESGGGLVQPGGSLRLSCAASGFTFSSYAMSWVRQAPGKGLEWVSQISPAGGYTNYADSVKGRFTISADTSKNTAYLQMNSLRAEDTAVYYCARGELPYYRMSKVMDVWGQGTLVTVSSGGGGSGGGGSGGGGSDIQMTQSPSSLSASVGDRVTITCRASQYFSSYLAWYQQKPGKAPKLLIYGASSRASGVPSRFSGSGSGTDFTLTISSLQPEDFATYYCQQYLGSPPTFGQGTKVEIK light: not shown | < 100 | 190
bsAb with heavy chain polypeptide SEQ ID NO: 4 and light chain SEQ ID NO: 12 (bispecific antibody, human IgG2, kappa) heavy: QVQLQESGPGLVKPSETLSLTCTVSGGSVSSGDYYWTWIRQSPGKGLEWIGHIYYSGNTNYNPSLKSRLTISIDTSKTQFSLKLSSVTAADTAIYYCVRDRVTGAFDIWGQGTMVTVSSASTKGPSVFPLAPCSRSTSESTAALGCLVKDYFPEPVTVSWNSGALTSGVHTFPAVLQSSGLYSLSSVVTVPSSNFGTQTYTCNVDHKPSNTKVDKTVERKCCVECPPCPAPPVAGPSVFLFPPKPKDTLMISRTPEVTCVVVDVSHEDPEVQFNWYVDGVEVHNAKTKPREEQFNSTFRVVSVLTVVHQDWLNGKEYKCKVSNKGLPAPIEKTISKTKGQPREPQVYTLPPSREEMTKNQVSLTCLVKGFYPSDIAVEWESNGQPENNYKTTPPMLDSDGSFFLYSKLTVDKSRWQQGNVFSCSVMHEALHNHYTQKSLSLSPGKGGGGSGGGGSGGGGSEVQLVESGGGLVQPGGSLRLSCAASGFTFSSYAMSWVRQAPGKGLEWVSQISPAGGYTNYADSVKGRFTISADTSKNTAYLQMNSLRAEDTAVYYCARGELPYYQMSKVMDVWGQGTLVTVSSGGGGSGGGGSGGGGSDIQMTQSPSSLSASVGDRVTITCRASQYFSSYLAWYQQKPGKAPKLLIYGASARASGVPSRFSGSGSGTDFTLTISSLQPEDFATYYCQQYLASPATFGQGTKVEIK light: not shown | < 100 | 
bsAb with heavy chain polypeptide SEQ ID NO: 1 and light chain SEQ ID NO: 12 (control) (bispecific antibody, human IgG2, kappa) heavy: QVQLQESGPGLVKPSETLSLTCTVSGGSVSSGDYYWTWIRQSPGKGLEWIGHIYYSGNTNYNPSLKSRLTISIDTSKTQFSLKLSSVTAADTAIYYCVRDRVTGAFDIWGQGTMVTVSSASTKGPSVFPLAPCSRSTSESTAALGCLVKDYFPEPVTVSWNSGALTSGVHTFPAVLQSSGLYSLSSVVTVPSSNFGTQTYTCNVDHKPSNTKVDKTVERKCCVECPPCPAPPVAGPSVFLFPPKPKDTLMISRTPEVTCVVVDVSHEDPEVQFNWYVDGVEVHNAKTKPREEQFNSTFRVVSVLTVVHQDWLNGKEYKCKVSNKGLPAPIEKTISKTKGQPREPQVYTLPPSREEMTKNQVSLTCLVKGFYPSDIAVEWESNGQPENNYKTTPPMLDSDGSFFLYSKLTVDKSRWQQGNVFSCSVMHEALHNHYTQKSLSLSPGKGGGGSGGGGSGGGGSHTPGNSKPTRTPRR light: not shown |  | 69700
